Laboratory results taken from article PMC7478896, “EphrinB2-EphB4 signalling provides Rho-mediated homeostatic control of lymphatic endothelial cell junction integrity” (eLife, 2020).

Molecular target: T1, EphB4 (human (endogenous in HDLEC), UniProt P54760 16-987)
T1 sequence (looked up): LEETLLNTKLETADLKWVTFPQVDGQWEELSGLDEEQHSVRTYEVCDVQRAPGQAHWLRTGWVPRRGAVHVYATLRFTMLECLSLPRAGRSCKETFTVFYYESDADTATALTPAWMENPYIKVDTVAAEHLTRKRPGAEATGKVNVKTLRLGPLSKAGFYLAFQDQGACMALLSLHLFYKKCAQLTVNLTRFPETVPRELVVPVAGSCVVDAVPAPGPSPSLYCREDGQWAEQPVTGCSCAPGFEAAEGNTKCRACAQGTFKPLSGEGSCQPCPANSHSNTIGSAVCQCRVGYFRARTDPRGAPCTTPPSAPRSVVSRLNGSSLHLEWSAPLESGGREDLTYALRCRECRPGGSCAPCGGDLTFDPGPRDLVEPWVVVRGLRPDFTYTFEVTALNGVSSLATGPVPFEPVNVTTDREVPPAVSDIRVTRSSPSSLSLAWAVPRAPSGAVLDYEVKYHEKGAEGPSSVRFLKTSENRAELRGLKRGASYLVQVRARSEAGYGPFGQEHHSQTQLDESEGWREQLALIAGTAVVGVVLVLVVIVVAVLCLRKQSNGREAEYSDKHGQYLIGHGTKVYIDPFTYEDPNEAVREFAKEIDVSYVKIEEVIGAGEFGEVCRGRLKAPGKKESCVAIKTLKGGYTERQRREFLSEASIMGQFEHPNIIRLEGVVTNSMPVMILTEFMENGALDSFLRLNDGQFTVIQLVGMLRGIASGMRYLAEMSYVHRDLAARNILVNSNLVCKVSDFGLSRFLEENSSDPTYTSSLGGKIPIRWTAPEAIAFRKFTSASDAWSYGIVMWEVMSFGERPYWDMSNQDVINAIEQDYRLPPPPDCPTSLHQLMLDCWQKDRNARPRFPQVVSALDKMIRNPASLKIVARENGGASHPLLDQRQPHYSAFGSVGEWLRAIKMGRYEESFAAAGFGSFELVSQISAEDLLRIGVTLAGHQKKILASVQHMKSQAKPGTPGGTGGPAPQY
Assay: cell-based or functional assay

Rac1 activity (Rac1-GTP pull-down) in HDLECs after 30 min stimulation with 0.5 µg/ml clustered EphrinB2-Fc: 2 fold
B1: recombinant human EphrinB2-Fc (Fc fusion, UniProt P52799 28-229, looked up)
chain: IVLEPIYWNSSNSKFLPGQGLVLYPQIGDKLDIICPKVDSKTVGQYEYYKVYMVDKDQADRCTIKKENTPLLNCAKPDQDIKFTIKFQEFSPNLWGLEFQKNKDYYIISTSNGSLEGLDNQEGGVCQTRAMKILMKVGQDASSAGSTRNKDPTRRPELEAGTNGRSSTTSPFVKPNPGSSTDGNSAGHSGNNILGSEVALFA
